{"source": "paper PMC6978714", "about": "“Protective Allele for Multiple Sclerosis HLA-DRB1*01:01 Provides Kinetic Discrimination of Myelin and Exogenous Antigenic Peptides” (Frontiers in Immunology, 2020)", "key": {"HLA-DR2": {"tested_on": "HLA-DR2", "conditions": "direct binding to purified molecules; cited from earlier work", "excerpt": "(§1) MS therapeutic glatiramer acetate (GA) or Copaxone is a 40–100 amino acids polypeptide of a random sequence composed from alanine, lysine, glutamate, and tyrosine at a molar ratio of 4.5:3.6:1.5:1, respectively, that with high affinity binds directly to the purified HLA-DR1, -DR2, and -DR4 molecules ([45]). Combinatorial chemistry, which lays in the basis of GA, may result in assembling of multiple HLA class II epitopes, that at least in part may be not simply thermodynamically but rather kinetically preferable. Concluding our data provide novel vector of optimization of altered peptide ligand ..."}, "HLA-DR1": {"tested_on": "HLA-DR1", "conditions": "direct binding to purified molecules; cited from earlier work", "excerpt": "as §1"}, "HLA-DR4": {"tested_on": "HLA-DR4", "conditions": "direct binding to purified molecules; cited from earlier work", "excerpt": "as §1"}, "HLA-DRB1*01:01 [1]": {"molecular_target": "T1, HLA-DRB1*01:01 (Homo sapiens, UniProt P01903+P01911, A100R/D57E/F55L/F60I/F76Y/I96L/L162R/M171V/P40L/Q125E/R42F/V115G/Y59C)", "test": "Peptide binding ELISA (L243 capture, streptavidin-peroxidase)", "conditions": "thioredoxin-fused biotinylated MBP fragments 750 nM, HLA-DR 150 nM, overnight, 37°C"}, "HLA-DRB1*15:01 [2]": {"molecular_target": "T2, HLA-DRB1*15:01 (Homo sapiens, UniProt P01903+P01911)", "test": "Kinetic competition assay with Trx-[pp65]bio in presence of HLA-DM", "format": "binding", "conditions": "HLA-DRB1*15:01 150 nM, HLA-DM 150 nM, Trx-[pp65]bio 150 nM, competitor 0-1 μM", "method": "(§2) In a competition assay, kinetic experiments were carried out as described above. Kinetics were measured in the presence of increasing concentrations (0, 30, 100, 300, and 1,000 nM) of thioredoxin-fused HA, pp65, MBP, or chimeric peptides at timepoints 8, 6, 4, 2, and 0 h. Thioredoxin without any peptide was used as a control. ELISA was performed as done previously. All experiments were carried out in triplicates."}, "HLA-DRB1*15:01 [3]": {"molecular_target": "T2, HLA-DRB1*15:01", "test": "18 h competition assay with Trx-[pp65]bio", "format": "binding", "conditions": "HLA-DRB1*15:01 150 nM, Trx-[pp65]bio 150 nM, competitor 7.8 nM-1 μM", "method": "In a competition assay, biotinylated thioredoxin-fused HA and pp65 peptides (150 nM) were incubated with HLA-DR in the presence of HA, pp65, MBP or chimeric peptides (1,000, 500, 250, 125, 62.5, 31.2, 15.6, and 7.8 nM) for 18 h. Whole procedure was the same as described above."}, "HLA-DRB1*15:01 [4]": {"molecular_target": "T2, HLA-DRB1*15:01", "test": "Real-time ELISA kinetics of peptide loading (CLIP exchange) with or without HLA-DM", "format": "binding", "conditions": "thioredoxin-fused peptides 150 nM, HLA-DR 150 nM, HLA-DM 150 nM", "method": "A real-time ELISA assay was used to assess kinetics of peptide exchange on HLA-DR, catalyzed by HLA-DM. The linker connecting the CLIP peptide to the N-terminus of the HLA-DR β chain was cut with thrombin (1 h, 20 U/mg, at room temperature). DR-CLIP complexes (150 nM) were incubated with or without HLA-DM (150 nM, which was estimated as minimal concentration for maximal rate, see Figure S1) in the presence of biotinylated either synthetic or thioredoxin-fused HA, pp65, MBP, and chimeric peptides (150 nM, which was experimentally estimated as minimal concentration required for reliable detection), for 7, 5, 3, 1, and 0 h. Each time point was mixed separately starting from the end of incubation time (7 h) every 2 h, afterwards all time points were loaded into the plate."}, "HLA-DRB1*15:01 [5]": {"molecular_target": "T2, HLA-DRB1*15:01", "test": "Peptide binding ELISA (L243 capture, streptavidin-peroxidase)", "conditions": "thioredoxin-fused biotinylated MBP fragments 750 nM, HLA-DR 150 nM, overnight, 37°C", "method": "DR/peptide complexes were then captured on the ELISA plate with immobilized L243 mAb (5 μg/ml in PBS) and blocked with 1% milk in PBS. HLA-DR-bound biotinylated peptide was quantitated with streptavidin-peroxidase (50 μl in PBST), using 3,3′,5,5′-tetramethylbenzidine (50 μl) as a substrate and stopping with 10% phosphoric acid (50 μl). ELISA was performed using standard protocol (https://www.abcam.com/protocols/sandwich-elisa-protocol)."}, "HLA-DRB1*01:01 [6]": {"molecular_target": "T1, HLA-DRB1*01:01", "test": "Real-time ELISA kinetics of peptide loading (CLIP exchange) with or without HLA-DM", "format": "binding", "conditions": "thioredoxin-fused chimeric peptides with C-terminal part of MBP151-164 or MBP88-100, 150 nM, HLA-DR 150 nM, with or without HLA-DM 150 nM"}, "HLA-DRB1*01:01 [7]": {"molecular_target": "T1, HLA-DRB1*01:01", "test": "Kinetic competition assay with Trx-[HA]bio in presence of HLA-DM", "format": "binding", "conditions": "HLA-DRB1*01:01 150 nM, HLA-DM 150 nM, Trx-[HA]bio 150 nM, competitor 0-1 μM, 0-8 h", "method": "as §2"}}, "note": "No end group written: not given here."}
{"substance": "glatiramer acetate", "values": [{"measurement": "Binding to purified HLA-DR2", "setting": "HLA-DR2", "value": "high affinity"}, {"measurement": "Binding to purified HLA-DR1", "setting": "HLA-DR1", "value": "high affinity"}, {"measurement": "Binding to purified HLA-DR4", "setting": "HLA-DR4", "value": "high affinity"}]}
{"substance": "MBP65−92: thioredoxin-fused MBP fragment of the MBP epitope library ({thioredoxin-(SGGGG)3S}-ARTAHYGSLPQKSHGRTQDENPVVHFFK; also: biotin (EZ-Link Sulfo-NHS-LC-biotin), places not given here, His-tag, end not given here)", "values": [{"measurement": "Binding of MBP epitope library to HLA-DRB1*01:01", "setting": "HLA-DRB1*01:01 [1]", "value": "less efficiently bound"}]}
{"substance": "Trx-[MBP85−97]: thioredoxin-fused MBP85−97 (NPVVHFFKNIVTP; not fully specified (N-terminus); also: fused to thioredoxin via (SGGGG)3S linker at N-terminus, His-tag, position not given here, biotinylated with Sulfo-NHS-LC-biotin, site not given here)", "values": [{"measurement": "Concentration from which binding of Trx-[pp65]bio was decreased", "setting": "HLA-DRB1*15:01 [2]", "value": 100, "unit": "nM"}, {"measurement": "Thermodynamic inhibition capacity in comparison with Trx-[pp65] and Trx-[pp65-MBP91-97]", "setting": "HLA-DRB1*15:01 [3]", "value": "up to half of order of magnitude greater"}, {"measurement": "Rate of loading on HLA-DRB1*15:01 with or without HLA-DM", "setting": "HLA-DRB1*15:01 [4]", "value": "similarly high rate"}]}
{"substance": "MBP130−156: thioredoxin-fused MBP fragment of the MBP epitope library (GRASDYKSAHKGFKGVDAQGTLSKIFK; not fully specified (N-terminus); also: fused to thioredoxin via (SGGGG)3S linker at N-terminus, His-tag, position not given here, biotinylated with Sulfo-NHS-LC-biotin, site not given here)", "values": [{"measurement": "Binding of MBP epitope library to HLA-DRB1*01:01", "setting": "HLA-DRB1*01:01 [1]", "value": "less efficiently bound"}, {"measurement": "Binding of MBP epitope library to HLA-DRB1*15:01", "setting": "HLA-DRB1*15:01 [5]", "value": "significantly diminished efficiency"}]}
{"substance": "Trx-[MBP88−100]: thioredoxin-fused MBP88−100 ({thioredoxin-(SGGGG)3S}-VHFFKNIVTPRTP; also: biotin (EZ-Link Sulfo-NHS-LC-biotin), places not given here, His-tag, end not given here)", "values": [{"measurement": "Capable of efficiently binding HLA-DRB1*01:01 (kinetic assay)", "setting": "HLA-DRB1*01:01 [6]", "value": "none"}]}
{"substance": "Trx-[MBP151−164]: thioredoxin-fused MBP151−164 ({thioredoxin-(SGGGG)3S}-LSKIFKLGGRDSRS; also: biotin (EZ-Link Sulfo-NHS-LC-biotin), places not given here, His-tag, end not given here)", "values": [{"measurement": "Concentration up to which the peptide failed to compete with Trx-[HA]bio", "setting": "HLA-DRB1*01:01 [7]", "value": "> 1", "unit": "µM"}, {"measurement": "Capable of efficiently binding HLA-DRB1*01:01 (kinetic assay)", "setting": "HLA-DRB1*01:01 [6]", "value": "none"}]}
{"substance": "MBP25−54: thioredoxin-fused MBP fragment of the MBP epitope library (ARHGFLPRHRDTGILDSIGRFFGGDRGAPK; not fully specified (N-terminus); also: fused to thioredoxin via (SGGGG)3S linker at N-terminus, His-tag, position not given here, biotinylated with Sulfo-NHS-LC-biotin, site not given here)", "values": [{"measurement": "Binding of MBP epitope library to HLA-DRB1*15:01", "setting": "HLA-DRB1*15:01 [5]", "value": "significantly diminished efficiency"}]}
